Laboratory results published in article PMC8199036, “Improved Tumor-Targeting with Peptidomimetic Analogs of Minigastrin ^177Lu-PP-F11N” (Cancers, 2021).
Where two headings read alike, the source gives them in different places. Starred links: 1 amine or outer side, 2 acyl side, 3 side chain; linkers in the order of their positions; H or OH if unused. Non-standard residues stand in square brackets, D forms with d. Residues, ends and D or L forms follow the SMILES beside them. *: point of attachment. DOTA = O=C(O)CN1CCN(CC(=O)O)CCN(CC(=O)*)CCN(CC(=O)O)CC1; X1 = C[C@@H](C(=O)[*:2])n1cc([C@@H](CCC(=O)O)N[*:1])nn1; X2 = O=C(Cn1cc([C@H](Cc2ccc(O)cc2)N[*:1])nn1)[*:2]; Nle = CCCC[C@H](N)C(=O)O

What was measured:
[1] = logD pH 7.4 determination; format: physicochemical; settings: 177Lu-labeled
From the text: (§1) Procedures for (radio)metal labeling of the DOTA–minigastrin conjugates with ^177Lu^3+ and ^natLu^3+, cell culturing of A431-CCK2R cells, cell internalization (including blocking experiments with excess minigastrin (H-LE5AYGWMDF-NH2)), competition binding assays (IC50), stability measurements in human blood plasma, and determinations of logDpH 7.4 have been reported previously for the in vitro evaluation of TZMGs and were applied to NMGs without alteration.

A431-CCK2R cells = assay: cell binding and internalization; format: cell-based; settings: for internalized blocked / membrane-bound blocked: 6000-fold excess of minigastrin; for internalized specific / membrane-bound specific: total minus blocked
From the text: as §1
Figure 2 (A) Total internalization of ^177Lu-labeled conjugates (2 nM, 5 kBq) in […] cells over 4 h (n = 3–4 in triplicate). […] Data points show mean value ± standard deviation.
Cell Internalization Data
Cell internalization was determined and analyzed as described in Grob, et al., J Med Chem, 2020.1 Specific values result from values of total internalization or cell binding minus values obtained in presence of a 6000-fold excess of minigas- […]
Incubation time membrane-bound internalized total blocked specific total blocked specific
Table S3: Complete Internalization Data for 177Lu-labeled NMG 1 as mean ± standard deviation from n = 3–4 in triplicates.
Table S4: Complete Internalization Data for 177Lu-labeled NMG 2 as mean ± standard deviation from n = 3–4 in triplicates.
Table S5: Complete Internalization Data for 177Lu-labeled NMG 3 as mean ± standard deviation from n = 3–4 in triplicates.

[2] = test system: A431-CCK2R cells xenografts; assay: SPECT/CT imaging of mice with tumor xenografts; format: in vivo, female CD1-nu mice; settings: 24 h p.i.
Description: 10–14 days prior to the experiment, 6-week-old female CD1-nu mice were inoculated with 5 × 10^6 A431-CCK2R cells (0.1 mL, 5 × 10^7 cells/mL in PBS) subcutaneously in both shoulders. The mice were randomly assigned to groups of two animals. On the day of the experiment, ^177Lu-labeled conjugates (200 pmol, 100 µL, 2 µM in PBS, 20 MBq, 20 µg/kg) were injected via the tail vein. The mice were kept with food and water ad libitum. SPECT scans of 40 min (1 and 4 h p.i., frame duration 60 sec) or 60 min (24 h p.i., frame duration 80 sec) were acquired after an initial CT scan of 7.5 min (CT tube voltage 55 kV, CT tube current 145 µA) with a multi-pinhole NanoSPECT/CTplus (Bioscan Inc., […], and Mediso, Hungary). For the duration of the SPECT/CT scans, mice were kept under anesthesia with a mixture of isoflurane (1.5–2.5%) and oxygen and warmed by a constant air flow of 37 °C. The images were reconstructed with HiSPECT and analyzed in VivoQuant. A post-reconstruction filter was applied (Gauss, full width at half max, 1 mm) to the SPECT images, and the scale was adjusted to visualize important organs and tissues (0.001–0.004 kBq/voxel). n = 2 animals per group.

[3] = test system: xenografts of A431-CCK2R cells; assay: biodistribution in mice with CCK2R-positive xenografts; format: in vivo, female CD1-nu mice
Description: (§2) Procedures for biodistribution studies with ^177Lu-labeled conjugates (10 pmol, 100 µL, 0.1 µM in PBS, 0.5 MBq, 1 µg/kg) in female CD1-nu mice with xenografts of A431-CCK2R cells at 1, 4, and 24 h p.i., as well as blocking experiments at 4 h p.i. with a 6000-fold excess of minigastrin have been reported previously and were followed without modifications. Statistical analysis was performed via GraphPad Prism using two-sided analysis of variance. n = 4 animals per group.

[4] = as above; format: in vivo, female CD1-nu mice; settings: female, CD1-nu, mouse, total radioactivity; for tissue uptake at 1 h / tissue uptake at 4 h / tissue uptake at 24 h: in vivo
Description: as §2

[5] = 10 pmol, Stomach (CCK2R-positive) uptake
[6] = 10 pmol, Tumor (CCK2R-positive) uptake
[7] = tumor / blood, 10 pmol, read-out: Tumor-to-Blood ratio
[8] = tumor / kidneys, 10 pmol, read-out: Tumor-to-Kidneys ratio
[9] = tumor / muscle, 10 pmol, read-out: Tumor-to-Muscle ratio
[10] = tumor / stomach, 10 pmol, read-out: Tumor-to-Stomach ratio

## CCCC[C@H](NC(=O)[C@H](Cc1c[nH]c2ccccc12)NC(=O)Cn1cc([C@H](Cc2ccc(O)cc2)NC(=O)[C@H](C)n2cc([C@@H](CCC(=O)O)NC(=O)[C@@H](CCC(=O)O)NC(=O)[C@@H](CCC(=O)O)NC(=O)[C@@H](CCC(=O)O)NC(=O)[C@@H](CCC(=O)O)NC(=O)[C@@H](CCC(=O)O)NC(=O)CN3CCN(CC(=O)O)CCN(CC(=O)O)CCN(CC(=O)O)CC3)nn2)nn1)C(=O)N[C@@H](CC(=O)O)C(=O)N[C@@H](Cc1ccccc1)C(N)=O [NMG 3, DOTA-(DGlu)6 -Ψ[Tz]-Ala-Tyr-Ψ[Tz]-Gly-Trp-Nle-Asp-Phe-NH2] ({DOTA}-[dE][dE][dE][dE][dE][X1][X2]W[Nle]DF-NH2)
[1]
  logDpH 7.4: -3.95 ± 0.42
A431-CCK2R cells; 0.5 h
  internalized total: 33.9 ± 1.1%
  membrane-bound total: 7.7 ± 0.8%
  internalized blocked: 0.4 ± 0.3%
  membrane-bound blocked: 0.9 ± 0.3%
  internalized specific: 33.5 ± 1.1%
  membrane-bound specific: 6.8 ± 1.0%
A431-CCK2R cells; 1 h
  internalized total: 57.2 ± 2.3%
  membrane-bound total: 6.4 ± 0.3%
  internalized blocked: 0.7 ± 0.3%
  membrane-bound blocked: 0.9 ± 0.3%
  internalized specific: 56.5 ± 2.1%
  membrane-bound specific: 5.5 ± 0.4%
A431-CCK2R cells; 2 h
  internalized total: 73.4 ± 1.3%
  membrane-bound total: 4.0 ± 0.6%
  internalized blocked: 5.5 ± 3.9%
  membrane-bound blocked: 1.8 ± 1.3%
  internalized specific: 67.9 ± 3.4%
  membrane-bound specific: 2.2 ± 1.3%
A431-CCK2R cells; 4 h
  membrane-bound total: 3.2 ± 0.3%
  internalized blocked: 18.4 ± 4.3%
  membrane-bound blocked: 2.4 ± 0.6%
  internalized specific: 57.7 ± 4.2%
  membrane-bound specific: 0.8 ± 0.6%
A431-CCK2R cells; after 4 h of incubation
  cell-associated radioactivity: ~80%
[2]
  visualization of tumor xenografts by SPECT/CT: clearly visualized
[3]; 4 h
  Tumor washout: tumor uptake relative to 1h: 73%
[3]; 24 h
  Tumor washout: tumor uptake relative to 1h: 56%
[3]; female, CD1-nu, mouse, in vivo, 10 pmol, 1 h
  Blood uptake: < 0.5 % i.A./g
[4]; 10 pmol, Blood uptake
  tissue uptake at 1 h: 0.51 %ID/g
  tissue uptake at 4 h: 0.02 %ID/g
  tissue uptake at 24 h: < 0.01 %ID/g
[4]; 10 pmol, Bone uptake
  tissue uptake at 1 h: 0.45 %ID/g
  tissue uptake at 24 h: 0.07 %ID/g
[4]; 10 pmol, Heart uptake
  tissue uptake at 1 h: 0.19 %ID/g
  tissue uptake at 4 h: 0.03 %ID/g
  tissue uptake at 24 h: 0.01 %ID/g
[4]; 10 pmol, Intestines uptake
  tissue uptake at 1 h: 0.25 %ID/g
  tissue uptake at 4 h: 0.1 %ID/g
  tissue uptake at 24 h: 0.02 %ID/g
[4]; 10 pmol, Kidneys uptake
  tissue uptake at 1 h: 2.01 %ID/g
  tissue uptake at 4 h: 1.74 %ID/g
  tissue uptake at 24 h: 1.09 %ID/g
[4]; 10 pmol, Liver uptake
  tissue uptake at 1 h: 0.16 %ID/g
  tissue uptake at 4 h: 0.07 %ID/g
  tissue uptake at 24 h: 0.04 %ID/g
[4]; 10 pmol, Lung uptake
  tissue uptake at 1 h: 0.33 %ID/g
  tissue uptake at 4 h: 0.07 %ID/g
  tissue uptake at 24 h: 0.03 %ID/g
[4]; 10 pmol, Muscle uptake
  tissue uptake at 1 h: 0.13 %ID/g
  tissue uptake at 24 h: 0.01 %ID/g
[4]; 10 pmol, Pancreas uptake
  tissue uptake at 1 h: 0.49 %ID/g
  tissue uptake at 4 h: 0.24 %ID/g
  tissue uptake at 24 h: 0.17 %ID/g
[4]; 10 pmol, Spleen uptake
  tissue uptake at 1 h: 0.13 %ID/g
  tissue uptake at 4 h: 0.05 %ID/g
[4]; [5]
  tissue uptake at 1 h: 3.76 %ID/g
  tissue uptake at 4 h: 3.11 %ID/g
  tissue uptake at 24 h: 1.51 %ID/g
[4]; [6]
  tissue uptake at 1 h: 9.43 %ID/g
  tissue uptake at 4 h: 6.9 %ID/g
  tissue uptake at 24 h: 5.24 %ID/g
[4]; Blood uptake
  tissue uptake at 4 h: 0.03 %ID/g
[4]; Heart uptake
  tissue uptake at 4 h: 0.05 %ID/g
[4]; Intestines uptake
  tissue uptake at 4 h: 0.07 %ID/g
[4]; Kidneys uptake
  tissue uptake at 4 h: 1.88 %ID/g
[4]; Liver uptake
  tissue uptake at 4 h: 0.09 %ID/g
[4]; Lung uptake
  tissue uptake at 4 h: 0.09 %ID/g
[4]; Pancreas uptake
  tissue uptake at 4 h: 0.19 %ID/g
[4]; Spleen uptake
  tissue uptake at 4 h: 0.06 %ID/g
[4]; Stomach (CCK2R-positive) uptake
  tissue uptake at 4 h: 0.65 %ID/g
[4]; Tumor (CCK2R-positive) uptake
  tissue uptake at 4 h: 3.43 %ID/g
[4]; [7]
  tissue to tissue ratio at 1 h: 19.5 ± 7.58
  tissue to tissue ratio at 4 h: 345 ± 34.6
  tissue to tissue ratio at 24 h: 4370 ± 541
[4]; [8]
  tissue to tissue ratio at 1 h: 4.7 ± 1.2
  tissue to tissue ratio at 4 h: 3.99 ± 0.43
  tissue to tissue ratio at 24 h: 3.65 ± 0.99
[4]; [9]
  tissue to tissue ratio at 1 h: 79 ± 15.7
  tissue to tissue ratio at 4 h: 505 ± 158
  tissue to tissue ratio at 24 h: 437 ± 54.1
[4]; [10]
  tissue to tissue ratio at 1 h: 2.66 ± 1.08
  tissue to tissue ratio at 4 h: 2.22 ± 0.2
  tissue to tissue ratio at 24 h: 3.06 ± 1.44
